# Test results: IntAct's records for PubMed 25910212
# B1: Tyrosine aminotransferase (Homo sapiens), P17735 (parent)
# chain: MDPYMIQMSSKGNLPSILDVHVNVGGRSSVPGKMKGRKARWSVRPSDMAKKTFNPIRAIVDNMKVKPNPNKTMISLSIGDPTVFGNLPTDPEVTQAMKDALDSGKYNGYAPSIGFLSSREEIASYYHCPEAPLEAKDVILTSGCSQAIDLCLAVLANPGQNILVPRPGFSLYKTLAESMGIEVKLYNLLPEKSWEIDLKQLEYLIDEKTACLIVNNPSNPCGSVFSKRHLQKILAVAARQCVPILADEIYGDMVFSDCKYEPLATLSTDVPILSCGGLAKRWLVPGWRLGWILIHDRRDIFGNEIRDGLVKLSQRILGPCTIVQGALKSILCRTPGEFYHNTLSFLKSNADLCYGALAAIPGLRPVRPSGAMYLMVGIEMEHFPEFENDVEFTERLVAEQSVHCLPATCFEYPNFIRVVITVPEVMMLEACSRIQEFCEQHYHCAEGSQEECDK
# B2: Mothers against decapentaplegic homolog 3 (Homo sapiens), P84022 (parent)
# chain: MSSILPFTPPIVKRLLGWKKGEQNGQEEKWCEKAVKSLVKKLKKTGQLDELEKAITTQNVNTKCITIPRSLDGRLQVSHRKGLPHVIYCRLWRWPDLHSHHELRAMELCEFAFNMKKDEVCVNPYHYQRVETPVLPPVLVPRHTEIPAEFPPLDDYSHSIPENTNFPAGIEPQSNIPETPPPGYLSEDGETSDHQMNHSMDAGSPNLSPNPMSPAHNNLDLQPVTYCEPAFWCSISYYELNQRVGETFHASQPSMTVDGFTDPSNSERFCLGLLSNVNRNAAVELTRRHIGRGVRLYYIGGEVFAECLSDSAIFVQSPNCNQRYGWHPATVCKIPPGCNLKIFNNQEFAALLAQSVNQGFEAVYQLTRMCTIRMSFVKGWGAEYRRQTVTSTPCWIELHLNGPLQWLDKVLTQMGSPSIRCSSVS
# partner: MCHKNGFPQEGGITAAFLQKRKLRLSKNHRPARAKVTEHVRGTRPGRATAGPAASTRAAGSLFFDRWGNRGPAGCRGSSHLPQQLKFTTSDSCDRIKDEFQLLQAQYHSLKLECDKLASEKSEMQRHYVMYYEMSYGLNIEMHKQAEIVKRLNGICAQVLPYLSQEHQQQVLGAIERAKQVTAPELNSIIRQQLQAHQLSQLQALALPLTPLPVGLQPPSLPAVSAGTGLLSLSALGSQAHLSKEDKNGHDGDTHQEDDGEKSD
# B3: DNA excision repair protein ERCC-1 (Homo sapiens), P07992-3 (parent)
# chain: MDPGKDKEGVPQPSGPPARKKFVIPLDEDEVPPGVAKPLFRSTQSLPTVDTSAQAAPQTYAEYAISQPLEGAGATCPTGSEPLAGETPNQALKPGAKSNSIIVSPRQRGNPVLKFVRNVPWEFGDVIPDYVLGQSTCALFLSLRYHNLHPDYIHGRLQSLGKNFALRVLLVQVDVKDPQQALKELAKMCILADCTLILAWSPEEAGRYLETYKAYEQKPADLLMEKLEQDFVSRVTECLTTVKSVNKTDSQTLLTTFGSLEQLIAASREDLALCPGLGPQKVRALGKNPRSWGKERAPNKHNLRPQSFKVKKEPKTRHSGFRL
# partner: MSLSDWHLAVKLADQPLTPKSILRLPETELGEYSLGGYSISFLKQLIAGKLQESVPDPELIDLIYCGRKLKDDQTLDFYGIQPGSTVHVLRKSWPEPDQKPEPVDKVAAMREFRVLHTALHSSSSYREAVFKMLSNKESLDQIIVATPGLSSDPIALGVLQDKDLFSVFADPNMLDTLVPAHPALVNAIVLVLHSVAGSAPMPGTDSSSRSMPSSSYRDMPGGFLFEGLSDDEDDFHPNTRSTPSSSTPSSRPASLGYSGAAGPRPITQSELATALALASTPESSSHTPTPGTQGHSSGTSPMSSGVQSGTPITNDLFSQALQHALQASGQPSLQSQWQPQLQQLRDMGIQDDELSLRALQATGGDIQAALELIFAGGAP
# B4: Torsin-1A (Homo sapiens), O14656 (parent)
# chain: MKLGRAVLGLLLLAPSVVQAVEPISLGLALAGVLTGYIYPRLYCLFAECCGQKRSLSREALQKDLDDNLFGQHLAKKIILNAVFGFINNPKPKKPLTLSLHGWTGTGKNFVSKIIAENIYEGGLNSDYVHLFVATLHFPHASNITLYKDQLQLWIRGNVSACARSIFIFDEMDKMHAGLIDAIKPFLDYYDLVDGVSYQKAMFIFLSNAGAERITDVALDFWRSGKQREDIKLKDIEHALSVSVFNNKNSGFWHSSLIDRNLIDYFVPFLPLEYKHLKMCIRVEMQSRGYEIDEDIVSRVAEEMTFFPKEERVFSDKGCKTVFTKLDYYYDD
# partner: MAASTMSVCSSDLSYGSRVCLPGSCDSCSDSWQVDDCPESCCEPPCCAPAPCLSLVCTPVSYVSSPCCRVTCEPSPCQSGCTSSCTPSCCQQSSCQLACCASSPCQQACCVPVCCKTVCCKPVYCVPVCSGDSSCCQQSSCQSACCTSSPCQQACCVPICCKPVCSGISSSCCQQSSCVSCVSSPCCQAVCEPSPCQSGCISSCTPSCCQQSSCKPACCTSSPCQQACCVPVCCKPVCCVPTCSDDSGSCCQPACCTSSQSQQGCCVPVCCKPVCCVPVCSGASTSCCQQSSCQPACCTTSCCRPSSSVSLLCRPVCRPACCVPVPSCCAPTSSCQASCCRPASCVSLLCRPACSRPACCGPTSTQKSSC
# B5: U4/U6 small nuclear ribonucleoprotein Prp31 (Homo sapiens), Q8WWY3 (parent)
# chain: MSLADELLADLEEAAEEEEGGSYGEEEEEPAIEDVQEETQLDLSGDSVKTIAKLWDSKMFAEIMMKIEEYISKQAKASEVMGPVEAAPEYRVIVDANNLTVEIENELNIIHKFIRDKYSKRFPELESLVPNALDYIRTVKELGNSLDKCKNNENLQQILTNATIMVVSVTASTTQGQQLSEEELERLEEACDMALELNASKHRIYEYVESRMSFIAPNLSIIIGASTAAKIMGVAGGLTNLSKMPACNIMLLGAQRKTLSGFSSTSVLPHTGYIYHSDIVQSLPPDLRRKAARLVAAKCTLAARVDSFHESTEGKVGYELKDEIERKFDKWQEPPPVKQVKPLPAPLDGQRKKRGGRRYRKMKERLGLTEIRKQANRMSFGEIEEDAYQEDLGFSLGHLGKSGSGRVRQTQVNEATKARISKTLQRTLQKQSVVYGGKSTIRDRSSGTASSVAFTPLQGLEIVNPQAAEKKVAEANQKYFSSMAEFLKVKGEKSGLMST
# partner: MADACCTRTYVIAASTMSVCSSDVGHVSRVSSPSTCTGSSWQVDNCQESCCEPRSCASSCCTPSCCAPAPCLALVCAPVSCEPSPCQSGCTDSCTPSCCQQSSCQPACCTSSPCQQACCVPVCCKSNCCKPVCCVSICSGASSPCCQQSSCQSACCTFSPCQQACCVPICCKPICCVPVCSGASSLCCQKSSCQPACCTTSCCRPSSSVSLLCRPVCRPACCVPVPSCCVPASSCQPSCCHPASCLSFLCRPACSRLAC
# B6: Chorion-specific transcription factor GCMb (Homo sapiens), O75603 (parent)
# chain: MPAAAVQEAVGVCSYGMQLSWDINDPQMPQELALFDQFREWPDGYVRFIYSSDEKKAQRHLSGWAMRNTNNHNGHILKKSCLGVVVCTQACTLPDGSRLQLRPAICDKARLKQQKKACPNCHSALELIPCRGHSGYPVTNFWRLDGNAIFFQAKGVHDHPRPESKSETEARRSAIKRQMASFYQPQKKRIRESEAEENQDSSGHFSNIPPLENPEDFDIVTETSFPIPGQPCPSFPKSDVYKATCDLATFQGDKMPPFQKYSSPRIYLPRPPCSYELANPGYTNSSPYPTLYKDSTSIPNDTDWVHLNTLQCNVNSYSSYERSFDFTNKQHGWKPALGKPSLVERTNHGQFQAMATRPYYNPELPCRYLTTPPPGAPALQTVITTTTKVSYQAYQPPAMKYSDSVREVKSLSSCNYAPEDTGMSVYPEPWGPPVTVTRAASPSGPPPMKIAGDCRAIRPTVAIPHEPVSSRTDEAETWDVCLSGLGSAVSYSDRVGPFFTYNNEDF
# partner: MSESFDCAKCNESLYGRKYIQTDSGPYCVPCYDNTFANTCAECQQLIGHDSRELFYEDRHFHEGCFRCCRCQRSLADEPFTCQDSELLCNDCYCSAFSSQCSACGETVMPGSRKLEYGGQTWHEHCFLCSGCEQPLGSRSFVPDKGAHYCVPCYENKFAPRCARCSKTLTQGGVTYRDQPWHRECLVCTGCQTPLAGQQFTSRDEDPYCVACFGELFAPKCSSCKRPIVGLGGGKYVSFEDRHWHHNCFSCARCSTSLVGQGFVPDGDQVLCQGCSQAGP
# B7: F-box only protein 7 (Homo sapiens), Q9Y3I1 (parent)
# chain: MRLRVRLLKRTWPLEVPETEPTLGHLRSHLRQSLLCTWGYSSNTRFTITLNYKDPLTGDEETLASYGIVSGDLICLILQDDIPAPNIPSSTDSEHSSLQNNEQPSLATSSNQTSMQDEQPSDSFQGQAAQSGVWNDDSMLGPSQNFEAESIQDNAHMAEGTGFYPSEPMLCSESVEGQVPHSLETLYQSADCSDANDALIVLIHLLMLESGYIPQGTEAKALSMPEKWKLSGVYKLQYMHPLCEGSSATLTCVPLGNLIVVNATLKINNEIRSVKRLQLLPESFICKEKLGENVANIYKDLQKLSRLFKDQLVYPLLAFTRQALNLPDVFGLVVLPLELKLRIFRLLDVRSVLSLSAVCRDLFTASNDPLLWRFLYLRDFRDNTVRVQDTDWKELYRKRHIQRKESPKGRFVMLLPSSTHTIPFYPNPLHPRPFPSSRLPPGIIGGEYDQRPTLPYVGDPISSLIPGPGETPSQFPPLRPRFDPVGPLPGPNPILPGRGGPNDRFPFRPSRGRPTDGRLSFM
# partner: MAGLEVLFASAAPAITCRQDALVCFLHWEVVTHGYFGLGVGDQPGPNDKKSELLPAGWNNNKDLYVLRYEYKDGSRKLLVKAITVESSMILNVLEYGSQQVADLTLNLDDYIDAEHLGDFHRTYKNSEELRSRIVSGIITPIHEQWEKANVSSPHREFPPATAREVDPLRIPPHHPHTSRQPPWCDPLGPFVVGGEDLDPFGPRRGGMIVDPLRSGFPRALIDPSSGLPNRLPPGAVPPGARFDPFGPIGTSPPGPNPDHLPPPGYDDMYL
# B8: Homeobox protein SIX1 (Homo sapiens), Q15475 (parent)
# chain: MSMLPSFGFTQEQVACVCEVLQQGGNLERLGRFLWSLPACDHLHKNESVLKAKAVVAFHRGNFRELYKILESHQFSPHNHPKLQQLWLKAHYVEAEKLRGRPLGAVGKYRVRRKFPLPRTIWDGEETSYCFKEKSRGVLREWYAHNPYPSPREKRELAEATGLTTTQVSNWFKNRRQRDRAAEAKERENTENNNSSSNKQNQLSPLEGGKPLMSSSEEEFSPPQSPDQNSVLLLQGNMGHARSSNYSLPGLTASQPSHGLQTHQHQLQDSLLGPLTSSLVDLGS
# partner: B2 partner
# B9: Carbonic anhydrase-related protein (Homo sapiens), P35219 (parent)
# chain: MADLSFIEDTVAFPEKEEDEEEEEEGVEWGYEEGVEWGLVFPDANGEYQSPINLNSREARYDPSLLDVRLSPNYVVCRDCEVTNDGHTIQVILKSKSVLSGGPLPQGHEFELYEVRFHWGRENQRGSEHTVNFKAFPMELHLIHWNSTLFGSIDEAVGKPHGIAIIALFVQIGKEHVGLKAVTEILQDIQYKGKSKTIPCFNPNTLLPDPLLRDYWVYEGSLTIPPCSEGVTWILFRYPLTISQLQIEEFRRLRTHVKGAELVEGCDGILGDNFRPTQPLSDRVIRAAFQ
# partner: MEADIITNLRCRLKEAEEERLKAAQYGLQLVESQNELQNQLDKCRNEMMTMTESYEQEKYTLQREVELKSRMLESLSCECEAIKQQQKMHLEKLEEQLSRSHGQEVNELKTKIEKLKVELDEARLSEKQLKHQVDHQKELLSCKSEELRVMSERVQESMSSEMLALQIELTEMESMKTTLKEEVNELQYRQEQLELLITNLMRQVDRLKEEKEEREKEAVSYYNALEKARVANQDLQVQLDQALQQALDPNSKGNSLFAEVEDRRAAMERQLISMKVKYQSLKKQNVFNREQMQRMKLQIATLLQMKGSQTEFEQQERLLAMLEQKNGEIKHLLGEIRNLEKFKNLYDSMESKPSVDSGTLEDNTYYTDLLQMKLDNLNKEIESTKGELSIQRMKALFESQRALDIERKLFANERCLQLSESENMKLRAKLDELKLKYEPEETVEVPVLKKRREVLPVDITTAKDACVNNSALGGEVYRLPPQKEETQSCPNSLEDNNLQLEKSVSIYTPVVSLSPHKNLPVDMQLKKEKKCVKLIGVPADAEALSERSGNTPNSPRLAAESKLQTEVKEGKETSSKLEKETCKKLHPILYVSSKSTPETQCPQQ
# Variants of: B1
# Conditions: with UBE3A
row,effect of a mutation on the interaction,Variant
1,disrupting interaction strength,L273P
2,disrupting interaction strength,P220S
3,with no effect,R119W

# Variants of: B1
# Conditions: with glna_human GLUL
row,effect of a mutation on the interaction,Variant
1,disrupting interaction strength,L273P
2,with no effect,P220S
3,with no effect,R119W

# Variants of: B2
# Conditions: with TLE5, Q08117-2
row,effect of a mutation on the interaction,Variant
1,with no effect,I170V
2,with no effect,N197I

# Variants of: B3
# Conditions: with ubl7_human UBL7, Q96S82
row,effect of a mutation on the interaction,Variant
1,with no effect,F231L

# Variants of: B4
# Conditions: with kr107_human KRTAP10-7, P60409
row,effect of a mutation on the interaction,Variant
1,with no effect,R288Q
2,with no effect,D216H

# Variants of: B5
# Conditions: with kr108_human KRTAP10-8, P60410
row,effect of a mutation on the interaction,Variant
1,with no effect,L107V

# Variants of: B6
# Conditions: with fhl3_human FHL3, Q13643
row,effect of a mutation on the interaction,Variant
1,with no effect,G63S
2,with no effect,G203S
3,disrupting interaction strength,R47L

# Variants of: B7
# Conditions: with psmf1_human PSMF1, Q92530
row,effect of a mutation on the interaction,Variant
1,disrupting interaction strength,T22M

# Variants of: B8
# Conditions: with TLE5, Q08117-2
row,effect of a mutation on the interaction,Variant
1,with no effect,R110W
2,with no effect,D227Y
3,with no effect,R112C

# Variants of: B9
# Conditions: with spdly_human SPDL1, Q96EA4
row,effect of a mutation on the interaction,Variant
1,disrupting interaction strength,S100P
